Legend:
[1] = target: IL-10 variant B11, recombinant monomer (human (by the printed UniProt entry …, UniProt P22301 19-178)); assay: SPR
[2] = target: IL-10 variant A11, recombinant monomer (human (by the printed UniProt entry …, UniProt P22301 19-178)); assay: SPR
[3] = target: high affinity IL-10 monomer R5A11M, recombinant (human (by the printed UniProt entry …, UniProt P22301 19-178)); assay: SPR
A11/IL-10Rα complex = A11/IL-10Rα complex (human (by the printed UniProt entry …, UniProt P22301 19-178; Q13651 22-235); assay: SPR; pre-bound to IL-10Rα
B11/IL-10Rα complex = B11/IL-10Rα complex (human (by the printed UniProt entry …, UniProt P22301 19-178; Q13651 22-235); assay: SPR; pre-bound to IL-10Rα
R5A11/IL-10Rα complex = R5A11/IL-10Rα complex (human (by the printed UniProt entry …, UniProt P22301 19-178; Q13651 22-235); assay: SPR; pre-bound to IL-10Rα

B1: IL-10Rβ ectodomain (amino acids 20-220), biotinylated (receptor)
chain: MVPPPENVRMNSVNFKNILQWESPAFAKGNLTFTAQYLSYRIFQDKCMNTTLTECDFSSLSKYGDHTLRVRAEFADEHSDWVNITFCPVDDTIIGPPGMQVEVLADSLHMRFLAPKIENEYETWTMKNVYNSWTYNVQYWKNGTDEKFQITPQYDFEVLRNLEPWTTYCVQVRGFLPDRNKAGEWSEPVCEQTTHDETVPS
modifications: biotin on the biotin acceptor peptide (BirA ligase)
[1]
  Kd: 9400 nM
[2]
  Kd: 2400 nM
[3]
  Kd: 8900 nM
A11/IL-10Rα complex
  Kd: 23 nM
B11/IL-10Rα complex
  Kd: 65 nM
R5A11/IL-10Rα complex
  Kd: 100 nM

From doi:10.1101/2020.03.10.985069 (2020)
